Assay results published in patent US8093212B2, “Methods of treating nerve-related vision disorders by an insulinomimetic agent” (The Penn State Research Foundation, priority 2002, dated 2012).
“Also recorded” adds a separate entry of the source.

How the values were obtained:
[1] = target: T1, insulin receptor beta-subunit (IRβ) (Rattus norvegicus, UniProt P15127); assay: Retinal tissue explant culture: IRβ tyrosine phosphorylation; assay type: cell-based; set-up: from tissue; host or cells: rat retinal explants; conditions: 10 nM insulin
T1 sequence (P15127 764-1383 limits assumed): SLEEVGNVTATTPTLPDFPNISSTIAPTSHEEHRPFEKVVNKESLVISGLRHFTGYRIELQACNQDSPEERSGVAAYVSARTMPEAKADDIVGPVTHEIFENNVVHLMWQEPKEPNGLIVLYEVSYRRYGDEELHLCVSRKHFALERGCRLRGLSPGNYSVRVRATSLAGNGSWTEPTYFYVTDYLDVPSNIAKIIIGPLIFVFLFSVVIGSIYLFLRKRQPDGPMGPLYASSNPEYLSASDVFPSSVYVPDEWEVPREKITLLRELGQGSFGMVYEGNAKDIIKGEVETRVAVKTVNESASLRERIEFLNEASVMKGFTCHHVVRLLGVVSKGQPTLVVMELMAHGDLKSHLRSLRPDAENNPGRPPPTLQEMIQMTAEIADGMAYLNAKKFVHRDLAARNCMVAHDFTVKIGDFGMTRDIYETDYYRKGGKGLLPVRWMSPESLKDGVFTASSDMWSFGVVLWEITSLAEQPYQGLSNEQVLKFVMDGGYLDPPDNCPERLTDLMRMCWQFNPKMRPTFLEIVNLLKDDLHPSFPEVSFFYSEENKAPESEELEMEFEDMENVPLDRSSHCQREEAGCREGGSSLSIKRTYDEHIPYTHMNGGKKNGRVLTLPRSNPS
T1 sequence (P15127 27-759 limits assumed): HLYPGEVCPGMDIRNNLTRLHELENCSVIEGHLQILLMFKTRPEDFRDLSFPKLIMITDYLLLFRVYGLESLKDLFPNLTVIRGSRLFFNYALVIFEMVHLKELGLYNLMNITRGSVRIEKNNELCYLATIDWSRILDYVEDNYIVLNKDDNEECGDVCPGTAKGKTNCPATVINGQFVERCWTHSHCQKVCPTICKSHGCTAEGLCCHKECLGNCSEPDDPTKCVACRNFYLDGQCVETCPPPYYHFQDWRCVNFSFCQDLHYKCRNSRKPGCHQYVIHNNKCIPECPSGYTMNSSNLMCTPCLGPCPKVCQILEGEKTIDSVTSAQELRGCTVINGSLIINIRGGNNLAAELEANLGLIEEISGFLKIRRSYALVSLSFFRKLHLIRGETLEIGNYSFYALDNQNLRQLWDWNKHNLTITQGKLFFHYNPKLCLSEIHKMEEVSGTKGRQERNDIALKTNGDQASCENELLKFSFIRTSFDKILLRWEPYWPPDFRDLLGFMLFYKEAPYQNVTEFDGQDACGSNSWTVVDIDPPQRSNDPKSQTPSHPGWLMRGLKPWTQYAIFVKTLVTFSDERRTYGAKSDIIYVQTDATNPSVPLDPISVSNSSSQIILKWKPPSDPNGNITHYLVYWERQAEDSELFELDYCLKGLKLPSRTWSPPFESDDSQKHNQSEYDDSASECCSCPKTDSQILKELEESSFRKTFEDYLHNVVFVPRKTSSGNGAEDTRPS
Method: (§1) A tissue explant culture system was used to characterize insulin-signaling transduction in retina without the hindrance of the blood retinal barrier present in whole animal models. Such a tissue explant culture system was developed as follows. Rats as described in Examples 1 and 2 were anesthetized using sodium pentobarbital ([…]), and then decapitated upon loss of motor reflexes. Rat retinas were removed by cutting across the cornea, removing the lens, and squeezing the eyeball to rapidly extract the retina. Retinas were pre-incubated in MEM (Sigma) supplemented with 5 mM pyruvate and 10 mM HEPES for 15 minutes at 37° C., 5% CO2, and with gentle shaking. Ten nM insulin or vehicle was added following pre-incubation. At 2, 5, 15, and 30 minutes after insulin addition, retinas were snap-frozen in liquid nitrogen for future use.
To examine the time course of insulin signaling events in the tissue, insulin-treated retinas were compared to retinas that received vehicle (0.9% saline) and to untreated retinas. Tissues were analyzed by immunoprecipitation and Western blotting as described in Example 1.

[2] = test system: IR and Akt kinase pathway; assay: Subconjunctival insulin administration: retinal IR and Akt kinase pathway activation; assay type: in vivo, Sprague-Dawley rats
[3] = target: T1, insulin receptor beta-subunit (IRβ); assay: Intraportal insulin injection: retina IRβ tyrosine phosphorylation (PY Western blot); assay type: in vivo, Sprague-Dawley rats; set-up: hindquarter skeletal muscle and retina were snap-frozen under liquid nitrogen; from tissue; host or cells: rat retina; conditions: 500 μg insulin bolus via portal vein, fasted rats
Method: (§2) Intraportal insulin injection was performed to determine if a single bolus insulin injection, and therefore an acute elevation in circulating insulin, could activate retinal insulin receptors (IR) in vivo as it does in other tissues. Intraportal insulin injection was conducted as follows. Male Sprague-Dawley rats (Charles River, Mass.) weighing 200 350 g were fasted 18 hours prior to being anesthetized with a 10:1 ketamine:xylazine cocktail (53.5 mg/kg ketamine and 5.33 mg/kg xylazine) administered by intramuscular injection. The fasted rats were administered a 500 μg bolus of insulin, nothing (sham), or vehicle (0.9% saline) via the portal vein. […]
(§3) Tissue lysates were immunoprecipitated and immunoblotted as described by Barber et al. (2001, J. Biol. Chem. 276: 32814 32831). Tissues were homogenized in an immunoprecipitation (IP) lysis buffer (consisting of 50 mM HEPES, pH 7.3, 137 mM NaCl, 1 mM MgCl2, 2 mM NaVO4, 10 mM Na2H2P2O7, 10 mM NaF, 2 mM EDTA, 2 mM PMSF, 10 mM benzamidine, 10% glycerol, 1% NP-40, and 1 protease inhibitor tablet (Boehringer-Mannheim) per 10 mL of buffer. Homogenates were rocked 15 minutes at 4° C. and then centrifuged at 14,000 rpm at 4° C. Prior to immunoprecipitation and immunoblotting, the resulting supernatant was subjected to protein assay (Bio-Rad) and quantification. […]

[4] = target: T1, insulin receptor beta-subunit (IRβ); assay: Intraportal insulin injection: muscle IRβ tyrosine phosphorylation (PY Western blot); assay type: in vivo, Sprague-Dawley rats; set-up: hindquarter skeletal muscle and retina were snap-frozen under liquid nitrogen; from tissue; host or cells: rat retina; conditions: 500 μg insulin bolus via portal vein
Method: Intraportal insulin injection was performed to determine if a single bolus insulin injection, and therefore an acute elevation in circulating insulin, could activate retinal insulin receptors (IR) in vivo as it does in other tissues. Intraportal insulin injection was conducted as follows. Male Sprague-Dawley rats (Charles River, Mass.) weighing 200 350 g were fasted 18 hours prior to being anesthetized with a 10:1 ketamine:xylazine cocktail (53.5 mg/kg ketamine and 5.33 mg/kg xylazine) administered by intramuscular injection. The fasted rats were administered a 500 μg bolus of insulin, nothing (sham), or vehicle (0.9% saline) via the portal vein. At 15, 30, 45 and 60 minutes post injection (shown in FIG. 2A), hindquarter skeletal muscle and retina were snap-frozen under liquid nitrogen, and then stored at −80° C. pending analysis by immunoprecipitation and immunoblotting. There was no difference in insulin receptor beta-subunit (IRβ) phosphorylation between vehicle (V) and insulin (I) injection.
Tissue lysates were immunoprecipitated and immunoblotted as described by Barber et al. (2001, J. Biol. Chem. 276: 32814 32831). Tissues were homogenized in an immunoprecipitation (IP) lysis buffer (consisting of 50 mM HEPES, pH 7.3, 137 mM NaCl, 1 mM MgCl2, 2 mM NaVO4, 10 mM Na2H2P2O7, 10 mM NaF, 2 mM EDTA, 2 mM PMSF, 10 mM benzamidine, 10% glycerol, 1% NP-40, and 1 protease inhibitor tablet (Boehringer-Mannheim) per 10 mL of buffer. Homogenates were rocked 15 minutes at 4° C. and then centrifuged at 14,000 rpm at 4° C. Prior to immunoprecipitation and immunoblotting, the resulting supernatant was subjected to protein assay (Bio-Rad) and quantification.
Immunoprecipitations were performed as follows. […] Fifty μg of protein per sample were analyzed by SDS-polyacrylamide gel electrophoresis (SDS-PAGE). […] Positive signals were detected with […] (ECL) kits (Cell Signaling) and electrochemifluoresence (ECF) kits (Amersham) each performed according to each manufacturer's protocol. […]

[5] = 0.0325 U/100 g insulin, subconjunctival space
Description: This route of administration bypasses the BRB for a more direct route of insulin action on retina. […] The retina was processed for IRβ PY content as described in Example 1.

[6] = target: T2, insulin-like growth factor I receptor (IGF-IRβ) (Rattus norvegicus, UniProt P24062); assay: Retinal explants: IGF-IRβ tyrosine phosphorylation; assay type: cell-based
T2 construct: from tissue; host or cells: rat retinal explants
T2 sequence (P24062 742-1370 limits assumed): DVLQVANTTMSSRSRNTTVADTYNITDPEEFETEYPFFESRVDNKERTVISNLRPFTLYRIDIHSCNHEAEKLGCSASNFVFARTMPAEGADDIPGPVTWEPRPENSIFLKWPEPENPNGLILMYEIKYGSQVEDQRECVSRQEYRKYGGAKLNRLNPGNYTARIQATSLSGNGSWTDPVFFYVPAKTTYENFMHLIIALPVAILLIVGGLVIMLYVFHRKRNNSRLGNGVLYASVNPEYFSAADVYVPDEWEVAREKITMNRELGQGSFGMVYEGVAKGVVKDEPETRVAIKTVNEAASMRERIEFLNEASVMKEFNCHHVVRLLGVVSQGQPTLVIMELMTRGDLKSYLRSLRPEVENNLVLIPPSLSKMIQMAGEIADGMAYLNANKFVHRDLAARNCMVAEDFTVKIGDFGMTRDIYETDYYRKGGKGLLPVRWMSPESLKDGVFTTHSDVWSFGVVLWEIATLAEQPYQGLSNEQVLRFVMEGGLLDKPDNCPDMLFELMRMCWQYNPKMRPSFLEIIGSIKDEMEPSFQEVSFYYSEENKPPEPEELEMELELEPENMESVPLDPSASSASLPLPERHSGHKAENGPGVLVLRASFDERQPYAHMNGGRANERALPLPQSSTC
T2 sequence (P24062 31-737 limits assumed): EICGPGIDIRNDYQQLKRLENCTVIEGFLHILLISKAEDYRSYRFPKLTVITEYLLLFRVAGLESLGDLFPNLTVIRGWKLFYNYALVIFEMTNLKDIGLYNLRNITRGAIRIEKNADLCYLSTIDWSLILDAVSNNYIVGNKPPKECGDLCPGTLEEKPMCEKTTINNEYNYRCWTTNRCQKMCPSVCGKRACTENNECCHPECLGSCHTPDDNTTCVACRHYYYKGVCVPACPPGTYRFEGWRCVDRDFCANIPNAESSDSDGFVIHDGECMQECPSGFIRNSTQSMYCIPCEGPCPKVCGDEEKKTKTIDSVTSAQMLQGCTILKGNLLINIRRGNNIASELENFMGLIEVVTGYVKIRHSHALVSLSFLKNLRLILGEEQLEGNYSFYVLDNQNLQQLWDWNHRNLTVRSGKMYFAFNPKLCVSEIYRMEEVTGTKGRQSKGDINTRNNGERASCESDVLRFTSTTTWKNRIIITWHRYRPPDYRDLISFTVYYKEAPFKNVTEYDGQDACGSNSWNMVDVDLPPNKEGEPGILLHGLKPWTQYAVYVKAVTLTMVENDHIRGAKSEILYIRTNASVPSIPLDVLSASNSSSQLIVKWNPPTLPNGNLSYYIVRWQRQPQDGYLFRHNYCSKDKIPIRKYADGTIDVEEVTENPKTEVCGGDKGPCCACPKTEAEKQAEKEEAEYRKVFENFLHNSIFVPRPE
Method: as §1
Retinas were treated with either 1.3 nM IGF-1 or 0, 1, 10, 100, and 1000 nM insulin, and then retinal lysates were immunoprecipitated with an insulin-like growth factor I receptor (IGF-IRβ)-specific antibody, followed by PY Western blotting (shown in FIG. 6). The IGF1-R was immunoprecipitated and PY Western blotting performed as described above.

Akt = assay: Intraportal insulin injection: retinal Akt (serine 473) phosphorylation Western blot; assay type: in vivo, Sprague-Dawley rats; conditions: retina, 45 minutes post-injection, 500 μg insulin bolus via portal vein
Method: as §2, §3

## insulin
[1]; 30 minute time point
  retinal IRβ phosphotyrosine immunoreactivity, fold greater than baseline: 3 fold
[1]; within 2 minutes of stimulation, normalized to total IRβ
  retinal IRβ phosphotyrosine immunoreactivity, fold greater: ~4 fold
[1]; 2, 5, 15 and 30 minutes, normalized to total IRβ
  retinal explant IRβ phosphorylation (qualitative): significant increase
[2]; 0.0325 U/100 g insulin, subconjunctival space, normal rats
  activation of the IR and Akt kinase pathway: activated
[2]; subconjunctival insulin, FIG. 8
  retinal IRβ PY content, insulin eye compared to contralateral vehicle eye: phosphorylated
[3]
  time of maximal retinal IRβ tyrosine phosphorylation: 45 min
  time until retinal IRβ tyrosine phosphorylation increased: 30 min
[4]; fasted rats
  time of peak muscle IRβ phosphotyrosine increase: 30 min
[4]; fasted rats, 15 minutes post-injection, zero time point set to 1
  increase in phosphotyrosine content in muscle IRβ (PY/IRβ ratio): ~30 fold
[4]; 15, 30, 45 and 60 minutes post injection
  muscle IRβ phosphorylation response (qualitative): robust response; also recorded: significant increase
[5]
  effect on blood glucose values: without lowering blood glucose values
[6]; 10 nM insulin
  IGF-IRβ phosphorylation: remained unchanged
[6]; 100 nM insulin, comparator 1.3 nM IGF-1
  IGF-IRβ phosphorylation: increased
Akt
  increase in phosphoserine 473 content of Akt over vehicle injected controls: 48%
